Structures can show the parent of a compound that is named as a salt. No end group written: not given here.
Assays:
[1] = TNBS assay, acidic hydrolysis of the cis-aconityl linkage; format: physicochemical
Method: TNBS (2,4,6-trinitrobenzene sulfonic acid) assay was performed in this example to analyze the acidic hydrolysis of the cis-aconityl linkage in the polypeptide-based long chain copolymer in conditions of different pH values. TNBS reacts with primary amines to yield a soluble orange colored product. Since PEG3400 released from hydrolyzed PEG3400-aconitic acid carries a free amine group at the end, the hydrolysis level of PEG3400-aconitic acid at different pH values is determined based on the amount of the colored product formed in TNBS assay. PEG3400-aconitic acid (2 mg/ml) was first dissolved in deionized water with a pH value of 5.0, 6.5, or 7.4 for hydrolysis. The hydrolysis reactions of 3 hours, 6 hours, 12 hours, and 24 fours were stopped by adjusting the pH value of the PEG3400-aconitic acid hydrolysate solutions to 8.2 and freezing. Sodium bicarbonate was added to the abovementioned hydrolysate solutions to a final concentration of 0.1 M (pH 8.2), and a 5% w/v TNBS solution was then added for reaction at 37° C. for 1 hour. The reaction was terminated using 1.0 N HCl, so that the volume ratio of the PEG3400-aconitic acid hydrolysate solution, the TNBS solution, and HCl was 4:2:1. Absorbance of the reaction-terminated solutions at 335 nm was measured with an enzyme-linked immunosorbent assay (ELISA) reader (Victor X3 2030 Multilabel Reader, PerkinElmer, Waltham, Mass., USA). According to the standard curve obtained from amine samples with known concentration, free amine group of PEG3400 in the reaction-terminated solutions was quantified and the hydrolysis level of PEG3400-aconitic acid at each pH was calculated.

[2] = system: human breast adenocarcinoma cells MDA-MB-231; test: Cell viability assay (MTS assay), anti-tumor activity; format: cell-based; settings: 10 μg/ml DOX equivalent, 24 hours treatment
Method: The anti-tumor activity of the drug-loaded polypeptide-based nanocarrier with protective shell of the present invention was evaluated in this example by cell viability assay (MTS assay) on human breast adenocarcinoma cells MDA-MB-231 cells. The cells were seeded in a 96-well plate (5×10^3 cells/well) and cultured in L-15 medium supplemented with 10% FBS and 1% penicillin and streptomycin at 37° C. for 1 day. Next, the medium was removed, and cells were treated with 100 μl L-15 medium containing DOX.HCl, the DOX-loaded polypeptide-based nanocarriers with protective shell of calcium phosphate and with LyP-1 peptide (M-DOX NP w/LyP-1), or the DOX-loaded polypeptide-based nanocarriers with protective shell of calcium phosphate and without LyP-1 peptide (M-DOX NP w/o LyP-1) at concentrations equivalent to 10 μg/ml DOX for 24 hours. The cells were rinsed with PBS 2 times and incubated with L-15 medium supplemented with 10% FBS and 1% penicillin and streptomycin at 37° C. for 24 hours, 48 hours, or 72 hours. To carry out the cell viability assay, the medium was first discarded from the 96-well plate, 10 μl MTS solution and 90 μl L-15 medium were added for incubation at 37° C. for 2.5 hours, and the solution was transferred to a new 96-well plate for measurement of light absorption at 490 nm. The assay was repeated 3 times.

| Molecule | breakage of the cis-aconityl linkage ([1]; pH 5, within 12 hours) [%] | breakage of the cis-aconityl linkage ([1]; pH 6.5, within 12 hours) [%] | breakage of the cis-aconityl linkage ([1]; pH 6.5, within 24 hours) [%] | breakage of the cis-aconityl linkage ([1]; pH 7.4, within 12 hours) | viability of the breast adenocarcinoma cells ([2]; kept incubated for 72 hours) [%] | viability of the breast adenocarcinoma cells ([2]; first time point, post-incubation time not given) [%] |
| --- | --- | --- | --- | --- | --- | --- |
| PEG3400-aconityl linkage-polypeptide E15-H10-L10 (EEEEEEEEEEEEEEEHHHHHHHHHHLLLLLLLLLL; also: PEG3400 via aconityl linkage, site not given here) [polypeptide-based long chain copolymer] | 43.33 | 13.28 | 21 | about 1.97% | – | – |
| COc1cccc2c1C(=O)c1c(O)c3c(c(O)c1C2=O)C[C@@](O)(C(=O)CO)C[C@@H]3O[C@H]1C[C@H](N)[C@H](O)[C@H](C)O1 [DOX.HCl, doxorubicin hydrochloride] | – | – | – | – | 5.4 | 14.3 |

Reference: patent US10905653B2, “Sequentially decomposable polypeptide-based nanocarriers with protective shell and preparation thereof” (National Tsing Hua University, priority 2016, dated 2021)
